Measured values published in publication PMC8479633.

Legend:
[1] = target: wild type full-length SMAD2 (S2FLWT), Q15796; assay: SAXS with ensemble optimisation; settings: remark: other sources report otherwise
[2] = target: wild type full-length SMAD2 (S2FLWT), Q15796; assay: SAXS with ensemble optimisation; settings: remark: other sources report otherwise; remark: listed apart in the source

percent of the population as trimer [1]: 16.4%
percent of the population as dimer [2]: 18%
percent of the population as trimer [2]: 1%
B1: wild type full-length SMAD2 (S2FLWT), Q15796 1-467 (natural protein)
chain: MSSILPFTPPVVKRLLGWKKSAGGSGGAGGGEQNGQEEKWCEKAVKSLVKKLKKTGRLDELEKAITTQNCNTKCVTIPSTCSEIWGLSTPNTIDQWDTTGLYSFSEQTRSLDGRLQVSHRKGLPHVIYCRLWRWPDLHSHHELKAIENCEYAFNLKKDEVCVNPYHYQRVETPVLPPVLVPRHTEILTELPPLDDYTHSIPENTNFPAGIEPQSNYIPETPPPGYISEDGETSDQQLNQSMDTGSPAELSPTTLSPVNHSLDLQPVTYSEPAFWCSIAYYELNQRVGETFHASQPSLTVDGFTDPSNSERFCLGLLSNVNRNATVEMTRRHIGRGVRLYYIGGEVFAECLSDSAIFVQSPNCNQRYGWHPATVCKIPPGCNLKIFNNQEFAALLAQSVNQGFEAVYQLTRMCTIRMSFVKGWGAEYRRQTVTSTPCWIELHLNGPLQWLDKVLTQMGSPSVRCSSMS
